Data taken from patent EP0980526B1 (IMPERIAL CANCER RESEARCH TECHNOLOGY LIMITED, dated 1998).

Target: T1, SRC1a-M1234 (human, UniProt Q15788 1-1441, [35S]-labelled)
T1 construct: range 1-1441; also called mutant SRC1
Assay: GST pulldown, +/- 10^-6 M E2

T1 sequence (Q15788 other isoform, or with tags, fused parts or gaps limits assumed): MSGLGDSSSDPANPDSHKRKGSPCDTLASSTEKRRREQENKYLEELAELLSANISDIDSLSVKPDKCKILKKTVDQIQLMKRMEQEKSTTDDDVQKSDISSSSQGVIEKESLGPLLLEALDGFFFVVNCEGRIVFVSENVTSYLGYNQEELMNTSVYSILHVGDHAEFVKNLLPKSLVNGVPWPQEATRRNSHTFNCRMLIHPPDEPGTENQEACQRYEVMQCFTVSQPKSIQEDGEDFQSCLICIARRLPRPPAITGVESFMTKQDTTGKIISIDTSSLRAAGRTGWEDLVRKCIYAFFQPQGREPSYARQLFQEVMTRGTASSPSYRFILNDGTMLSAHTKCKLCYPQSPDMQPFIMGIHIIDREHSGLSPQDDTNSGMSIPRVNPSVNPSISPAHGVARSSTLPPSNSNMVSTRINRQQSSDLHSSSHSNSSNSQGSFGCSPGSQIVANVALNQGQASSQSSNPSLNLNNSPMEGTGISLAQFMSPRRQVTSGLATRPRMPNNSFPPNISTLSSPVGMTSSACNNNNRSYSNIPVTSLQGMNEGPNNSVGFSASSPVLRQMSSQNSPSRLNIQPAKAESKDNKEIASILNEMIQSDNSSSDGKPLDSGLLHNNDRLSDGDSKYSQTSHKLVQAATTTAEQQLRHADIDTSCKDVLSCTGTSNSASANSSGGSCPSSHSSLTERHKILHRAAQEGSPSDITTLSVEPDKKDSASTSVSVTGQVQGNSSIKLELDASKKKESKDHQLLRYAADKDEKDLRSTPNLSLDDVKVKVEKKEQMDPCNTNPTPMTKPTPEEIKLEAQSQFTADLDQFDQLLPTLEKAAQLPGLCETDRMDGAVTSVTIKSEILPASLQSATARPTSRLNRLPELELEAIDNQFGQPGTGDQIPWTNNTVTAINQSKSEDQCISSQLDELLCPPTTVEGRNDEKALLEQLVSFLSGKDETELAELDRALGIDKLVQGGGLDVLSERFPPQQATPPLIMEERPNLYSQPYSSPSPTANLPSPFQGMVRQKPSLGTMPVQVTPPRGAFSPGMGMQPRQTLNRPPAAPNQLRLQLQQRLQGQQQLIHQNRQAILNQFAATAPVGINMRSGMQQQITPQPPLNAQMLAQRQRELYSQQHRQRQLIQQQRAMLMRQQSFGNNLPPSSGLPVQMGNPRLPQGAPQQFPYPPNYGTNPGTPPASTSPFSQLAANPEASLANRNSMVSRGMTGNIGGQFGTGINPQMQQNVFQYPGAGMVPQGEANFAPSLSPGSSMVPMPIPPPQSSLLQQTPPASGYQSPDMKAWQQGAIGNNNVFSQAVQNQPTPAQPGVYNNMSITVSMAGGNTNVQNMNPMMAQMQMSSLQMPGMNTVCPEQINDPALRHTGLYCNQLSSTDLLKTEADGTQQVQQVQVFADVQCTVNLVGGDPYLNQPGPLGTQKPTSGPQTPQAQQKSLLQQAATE

B1: GST-AF2 (ligand binding domain of the mouse estrogen receptor fused to glutathione-S-transferase) (receptor, UniProt P19785 313-599, looked up)
chain: SLTADQMVSALLDAEPPMIYSEYDPSRPFSEASMMGLLTNLADRELVHMINWAKRVPGFGDLNLHDQVHLLECAWLEILMIGLVWRSMEHPGKLLFAPNLLLDRNQGKCVEGMVEIFDMLLATSSRFRMMNLQGEEFVCLKSIILLNSGVYTFLSSTLKSLEEKDHIHRVLDKITDTLIHLMAKAGLTLQQQHRRLAQLLLILSHIRHMSNKGMEHLYNMKCKNVVPLYDLLLEMLDAHRLHAPASRMGVPPEEPSQTQLATTSSTSAHSLQTYYIPPEAEGFPNTI
notes: range 313-599; Loaded on glutathione beads; tested with or without 10^-6 M E2; also called ER LBD; not shown: glutathione-S-transferase (GST)
binding result: no binding
